By stoichiometry N is commonly meant a count of units in the complex or per binding partner.

The source of these data is PMC4060006, “SM proteins Sly1 and Vps33 co-assemble with Sec17 and SNARE complexes to oppose SNARE disassembly by Sec18” (eLife, 2014).

First the molecules themselves.
B1: Sly1 (full length, aa1-667) (natural protein, S. cerevisiae, UniProt P22213 1-666, looked up)
chain: MAVEEIASRKDISLRDMQISAILKMLFLNKDLNNNDNITTITDDIFNQQEIIWKVLILDIKSTATISSVLRVNDLLKAGITVHSLIKQDRSPLPDVPAIYFVSPTKENIDIIVNDLKSDKYSEFYINFTSSLPRNLLEDLAQQVSITGKSDKIKQVYDQYLDFIVTEPELFSLEISNAYLTLNDPKTTEEEITGLCANIADGLFNTVLTINSIPIIRAAKGGPAEIIAEKLGTKLRDFVINTNSSSTSTLQGNDSLERGVLIILDRNIDFASMFSHSWIYQCMVFDIFKLSRNTVTIPLESKENGTDNTTAKPLATKKYDIEPNDFFWMENSHLPFPEAAENVEAALNTYKEEAAEITRKTGVTNISDLDPNSNNDTVQIQEVVKKLPELTAKKNTIDTHMNIFAALLSQLESKSLDTFFEVEQDPGSTKTRSRFLDILKDGKTNNLEDKLRSFIVLYLTSTTGLPKDFVQNVENYFKENDYDINALKYVYKLREFMQLSNMSLQNKSLEDGSDSAFKPSNLTLSGIYGLTEGKLQGGVGSLISGIKKLLPEKKTIPITNVVDAIMDPLNSSQKNLETTDSYLYIDPKITRGSHTRKPKRQSYNKSLVFVVGGGNYLEYQNLQEWAHSQLHNPKKVMYGSTAITTPAEFLNEISRLGASNSSNNDA
notes: Sly1, Golgi SM protein, S. cerevisiae, printed as full-length aa1-667; construct His6-(tev)-Sly1; as I recall the UniProt entry has 666 residues; the printed 667 may count the stop codon; also called His6-Sly1; Golgi SM protein; source: E. coli (pRIL plasmid), purified (Ni-NTA)

Holding throughout (details): both partners purified
Assay [1] deals with T1, Sec17–Golgi SNARE complex (Sec17 bound to the Golgi SNARE complex on GST-Sed5 SNARE domain) (S. cerevisiae, UniProt Q01590 170-319; P25385 1-222; P22804 1-123; P22214 1-188; P32602 1-292).
T1 construct: Sed5, Qa-SNARE, S. cerevisiae, aa170-319; Bos1, Qb-SNARE, S. cerevisiae, aa1-222; Bet1, Qc-SNARE, S. cerevisiae, aa1-123; Sec22, R-SNARE, S. cerevisiae, aa1-188; Sec17, S. cerevisiae; in most experiments Sec17 and Sly1 were added together to the immobilised SNARE complex; also called SNARE-Sec17 complex; Sec17–SNARE complex; source: assembled on …
T1 sequence (looked up) 1: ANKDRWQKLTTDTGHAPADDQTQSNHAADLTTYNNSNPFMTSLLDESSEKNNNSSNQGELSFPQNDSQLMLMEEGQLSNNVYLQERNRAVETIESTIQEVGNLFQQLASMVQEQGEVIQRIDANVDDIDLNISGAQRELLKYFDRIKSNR
T1 sequence (looked up) 2: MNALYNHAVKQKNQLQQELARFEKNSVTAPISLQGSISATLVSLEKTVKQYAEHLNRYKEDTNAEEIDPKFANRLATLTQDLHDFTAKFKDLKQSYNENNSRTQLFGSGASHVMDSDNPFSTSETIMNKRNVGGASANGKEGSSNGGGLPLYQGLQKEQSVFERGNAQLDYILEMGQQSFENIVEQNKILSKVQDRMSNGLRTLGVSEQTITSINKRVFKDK
T1 sequence (looked up) 3: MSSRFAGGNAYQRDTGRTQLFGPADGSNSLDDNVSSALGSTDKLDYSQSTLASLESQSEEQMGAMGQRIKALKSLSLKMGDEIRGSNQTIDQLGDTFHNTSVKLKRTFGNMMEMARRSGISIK
T1 sequence (looked up) 4: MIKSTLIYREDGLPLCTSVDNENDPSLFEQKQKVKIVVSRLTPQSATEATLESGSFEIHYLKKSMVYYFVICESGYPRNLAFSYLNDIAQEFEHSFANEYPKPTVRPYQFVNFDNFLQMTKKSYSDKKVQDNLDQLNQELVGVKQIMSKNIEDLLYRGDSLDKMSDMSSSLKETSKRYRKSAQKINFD
T1 sequence (looked up) 5: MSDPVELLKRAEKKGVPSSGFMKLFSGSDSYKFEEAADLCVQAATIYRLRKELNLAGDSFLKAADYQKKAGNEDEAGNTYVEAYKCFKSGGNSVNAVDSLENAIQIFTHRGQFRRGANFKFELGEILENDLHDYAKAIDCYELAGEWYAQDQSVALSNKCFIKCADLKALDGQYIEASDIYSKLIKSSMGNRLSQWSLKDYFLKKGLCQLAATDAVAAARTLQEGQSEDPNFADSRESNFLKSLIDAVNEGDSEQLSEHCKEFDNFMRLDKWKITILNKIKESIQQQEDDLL
The assay can be described thus: pull-down; quantitative: immobilised SNARE complex, SM concentration varied, with or without Sec17, 30°C; SYPRO Ruby with standard curves; fractional saturation against free SM, one-site model; apparent (Kdobs), non-equilibrium measurements.

Assay [2] concerns the target T1, Sec17–Golgi SNARE complex (Sec17 bound …). As to the kind of experiment: pull-down; stoichiometry: complexes assembled on immobilised SNARE complex under saturation binding conditions; SDS-PAGE, SYPRO Ruby, band intensities against standard curves of the purified proteins; apparent.
The target of assay [3] is T2, Golgi SNARE complex assembled on immobilized GST-Sed5 SNARE domain (S. cerevisiae, UniProt Q01590 170-319; P25385 1-222; P22804 1-123; P22214 1-188).
T2 construct: Sed5, Qa-SNARE, S. cerevisiae, aa170-319; Bos1, Qb-SNARE, S. cerevisiae, aa1-222; Bet1, Qc-SNARE, S. cerevisiae, aa1-123; Sec22, R-SNARE, S. cerevisiae, aa1-188; quaternary SNARE bundle, no membranes; also called Golgi SNARE bundle; S.C; source: assembled on glutathione sepharose from proteins made in E. coli; not shown: GST, N-terminal, kept; His6, N-terminal, …
T2 sequence (looked up) 1: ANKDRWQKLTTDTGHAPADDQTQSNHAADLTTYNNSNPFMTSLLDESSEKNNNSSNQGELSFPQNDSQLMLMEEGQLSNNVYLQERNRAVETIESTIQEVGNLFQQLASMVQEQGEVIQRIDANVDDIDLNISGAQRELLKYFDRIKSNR
T2 sequence (looked up) 2: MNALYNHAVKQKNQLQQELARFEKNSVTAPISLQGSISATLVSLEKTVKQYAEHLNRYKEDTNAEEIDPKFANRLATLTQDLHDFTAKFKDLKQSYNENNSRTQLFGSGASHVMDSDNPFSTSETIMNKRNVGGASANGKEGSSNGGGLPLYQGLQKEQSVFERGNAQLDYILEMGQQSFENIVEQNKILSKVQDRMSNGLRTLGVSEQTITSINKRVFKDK
T2 sequence (looked up) 3: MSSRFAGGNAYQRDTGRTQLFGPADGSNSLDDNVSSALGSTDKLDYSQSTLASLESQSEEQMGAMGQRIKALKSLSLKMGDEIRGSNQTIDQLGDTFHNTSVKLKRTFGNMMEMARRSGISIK
T2 sequence (looked up) 4: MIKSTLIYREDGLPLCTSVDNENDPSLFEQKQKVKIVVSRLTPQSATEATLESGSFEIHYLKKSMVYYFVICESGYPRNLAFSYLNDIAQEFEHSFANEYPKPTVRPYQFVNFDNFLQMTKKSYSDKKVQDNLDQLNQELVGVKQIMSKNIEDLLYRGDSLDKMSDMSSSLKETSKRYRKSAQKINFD
The description is as above.

Assay [4] deals with T3, vacuole SNARE complex assembled on immobilized Vam3-GST (S. cerevisiae, UniProt Q12241 1-264; Q04338 1-194; P32912 190-316; Q12255 1-231).
T3 construct: Vam3, Qa-SNARE, S. cerevisiae, aa1-264; Vti1, Qb-SNARE, S. cerevisiae, aa1-194; Vam7, Qc-SNARE, S. cerevisiae, SNARE domain aa190-316; Nyv1, R-SNARE, S. cerevisiae, aa1-231; quaternary SNARE bundle, no membranes; also called vacuolar SNARE complex; SNARE bundle; source: assembled on glutathione sepharose from proteins made in E. coli; not shown: GST, C-terminal, …
T3 sequence (Q12241 1-264, chain 1 of 4): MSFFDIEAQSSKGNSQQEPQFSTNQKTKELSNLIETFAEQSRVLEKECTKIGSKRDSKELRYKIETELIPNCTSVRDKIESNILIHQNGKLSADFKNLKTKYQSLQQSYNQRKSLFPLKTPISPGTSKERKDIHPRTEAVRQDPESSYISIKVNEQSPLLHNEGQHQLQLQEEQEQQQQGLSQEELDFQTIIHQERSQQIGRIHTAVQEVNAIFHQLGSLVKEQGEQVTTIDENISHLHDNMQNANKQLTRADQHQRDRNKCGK
T3 sequence (Q04338 1-194, chain 2 of 4): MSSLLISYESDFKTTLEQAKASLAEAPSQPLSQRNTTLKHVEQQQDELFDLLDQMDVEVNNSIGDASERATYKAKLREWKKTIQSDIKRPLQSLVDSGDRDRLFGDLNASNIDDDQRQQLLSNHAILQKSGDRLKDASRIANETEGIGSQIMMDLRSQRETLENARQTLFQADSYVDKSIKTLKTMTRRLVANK
T3 sequence (P32912 190-316, chain 3 of 4): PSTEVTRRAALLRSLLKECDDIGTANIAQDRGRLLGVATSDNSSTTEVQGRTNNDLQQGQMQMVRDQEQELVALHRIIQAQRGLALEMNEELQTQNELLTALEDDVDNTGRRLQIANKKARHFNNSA
T3 sequence (Q12255 1-231, chain 4 of 4): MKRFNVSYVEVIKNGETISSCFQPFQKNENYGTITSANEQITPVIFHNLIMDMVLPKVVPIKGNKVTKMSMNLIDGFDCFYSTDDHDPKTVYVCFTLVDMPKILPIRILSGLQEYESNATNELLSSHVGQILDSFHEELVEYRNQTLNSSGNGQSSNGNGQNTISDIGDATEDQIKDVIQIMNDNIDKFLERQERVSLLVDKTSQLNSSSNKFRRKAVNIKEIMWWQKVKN
The assay is described as above.

For assay [5], the target named is T4, Sec17–vacuole SNARE complex (Sec17 bound to the vacuole SNARE complex on Vam3-GST) (S. cerevisiae, UniProt Q12241 1-264; Q04338 1-194; P32912 190-316; Q12255 1-231; P32602 1-292).
T4 construct: Vam3, Qa-SNARE, S. cerevisiae, aa1-264; Vti1, Qb-SNARE, S. cerevisiae, aa1-194; Vam7, Qc-SNARE, S. cerevisiae, SNARE domain aa190-316; Nyv1, R-SNARE, S. cerevisiae, aa1-231; Sec17, S. cerevisiae; in most experiments Sec17 and the SM were added together to the immobilised SNARE complex; also called SNARE–Sec17 complex; Sec17–SNARE complex; source: assembled …
T4 sequence (Q12241 1-264, chain 1 of 4): as the sequence (Q12241 1-264, chain 1 of 4) above
T4 sequence (Q04338 1-194, chain 2 of 4): as the sequence (Q04338 1-194, chain 2 of 4) above
T4 sequence (P32912 190-316, chain 3 of 4): as the sequence (P32912 190-316, chain 3 of 4) above
T4 sequence (Q12255 1-231, chain 4 of 4): as the sequence (Q12255 1-231, chain 4 of 4) above
The assay can be described thus: pull-down; quantitative: immobilised SNARE complex, SM concentration varied, with or without Sec17, 30°C; SYPRO Ruby with standard curves; fractional saturation against free SM, one-site model; apparent (Kdobs), non-equilibrium measurements.

Assay [6] has as its target T3, vacuole SNARE complex assembled on …. The assay is described as above.
Assay [7] concerns the target T4, Sec17–vacuole SNARE complex (Sec17 …). As to the kind of experiment: pull-down; stoichiometry: complexes assembled on immobilised SNARE complex under saturation binding conditions; SDS-PAGE, SYPRO Ruby, band intensities against standard curves of the purified proteins; apparent.
Assay [8] concerns the target B1. As to the kind of experiment: pull-down; full cytoplasmic domain of Sed5 (GST-Sed5FL, 500 nM) immobilised without assembled SNARE complex; Sly1 (10 µM) and Sec17; 30°C; Coomassie.

As for B1, the Kd in assay [1] is 1 ± 0.1 µM. For the same molecule, the “stoichiometry N” value in assay [2] was determined as 1 Sly1 per SNARE complex.

B2: Sec17 (natural protein, S. cerevisiae, UniProt P32602 1-292, looked up)
chain: MSDPVELLKRAEKKGVPSSGFMKLFSGSDSYKFEEAADLCVQAATIYRLRKELNLAGDSFLKAADYQKKAGNEDEAGNTYVEAYKCFKSGGNSVNAVDSLENAIQIFTHRGQFRRGANFKFELGEILENDLHDYAKAIDCYELAGEWYAQDQSVALSNKCFIKCADLKALDGQYIEASDIYSKLIKSSMGNRLSQWSLKDYFLKKGLCQLAATDAVAAARTLQEGQSEDPNFADSRESNFLKSLIDAVNEGDSEQLSEHCKEFDNFMRLDKWKITILNKIKESIQQQEDDLL
notes: Sec17, S. cerevisiae; construct CBD-(intein)-Sec17 in pTYB12; an intein tag is as a rule cut off during purification; also called α-SNAP homolog; Sec18 adapter; source: E. coli (pRIL plasmid), purified
Turning to B2, the “stoichiometry N” value in assay [3] and in assay [4] was 3 Sec17 per SNARE complex throughout.

B3: Vps33 (natural protein, S. cerevisiae, UniProt P20795 1-691, looked up)
chain: MNRFWNTKKFSLTNADGLCATLNEISQNDEVLVVQPSVLPVLNSLLTFQDLTQSTPVRKITLLDDQLSDDLPSALGSVPQMDLIFLIDVRTSLRLPPQLLDAAQKHNLSSLHIIYCRWKPSFQNTLEDTEQWQKDGFDLNSKKTHFPNVIESQLKELSNEYTLYPWDLLPFPQIDENVLLTHSLYNMENVNMYYPNLRSLQSATESILVDDMVNSLQSLIFETNSIITNVVSIGNLSKRCSHLLKKRIDEHQTENDLFIKGTLYGERTNCGLEMDLIILERNTDPITPLLTQLTYAGILDDLYEFNSGIKIKEKDMNFNYKEDKIWNDLKFLNFGSIGPQLNKLAKELQTQYDTRHKAESVHEIKEFVDSLGSLQQRQAFLKNHTTLSSDVLKVVETEEYGSFNKILELELEILMGNTLNNDIEDIILELQYQYEVDQKKILRLICLLSLCKNSLREKDYEYLRTFMIDSWGIEKCFQLESLAELGFFTSKTGKTDLHITTSKSTRLQKEYRYISQWFNTVPIEDEHAADKITNENDDFSEATFAYSGVVPLTMRLVQMLYDRSILFHNYSSQQPFILSREPRVSQTEDLIEQLYGDSHAIEESIWVPGTITKKINASIKSNNRRSIDGSNGTFHAAEDIALVVFLGGVTMGEIAIMKHLQKILGKKGINKRFIIIADGLINGTRIMNSIS
notes: Vps33, SM protein of the vacuole, S. cerevisiae; also called vacuole SM protein; late endolysosomal SM; source: insect cells, Baculovirus system, purified
For B3, the figures for the Kd in assay [5] and in assay [6] were 0.3 ± 0.01 µM and 1.6 ± 0.1 µM, respectively. Moreover, the “stoichiometry N” value in assay [7] was 1 Vps33 per SNARE complex.

B4: GST-Sed5 full cytoplasmic domain (aa1-319) (domain or fragment, S. cerevisiae, UniProt Q01590 1-319, looked up)
chain: MNIKDRTSEFQQSVLSYKKRNKNFREQQRERLQEKESENFANNTTGNGKSVSEFQKKASGIAHEISSTAQLLSKLAVLAKRKPMFNDNPVEIAELSFLIKRKIYAIEQSLVQLSQLKKTDVNGNTSNQSSKQPSAVQHSKNVVNLLNTQMKNISGSFKDVLEERQRLEMANKDRWQKLTTDTGHAPADDQTQSNHAADLTTYNNSNPFMTSLLDESSEKNNNSSNQGELSFPQNDSQLMLMEEGQLSNNVYLQERNRAVETIESTIQEVGNLFQQLASMVQEQGEVIQRIDANVDDIDLNISGAQRELLKYFDRIKSNR
notes: Sed5, Golgi Qa-SNARE, S. cerevisiae, full cytoplasmic domain aa1-319 with N-peptide and Habc segments, no transmembrane domain; also called GST-Sed5FL; Sed5FL; not shown: GST, N-terminal, kept
As to B4, in assay [8], the binding result is recorded as “binds”.
